Assay results published in patent US7144983.

target: trkA + p75 receptors on rat PC12 pheochromocytoma cells (rat) (UniProt P35739); experiment: 125I-hNGF displacement, PC12 cells (trkA+p75), 4 C
Sequence (P35739 33-799, chain 1 of 2): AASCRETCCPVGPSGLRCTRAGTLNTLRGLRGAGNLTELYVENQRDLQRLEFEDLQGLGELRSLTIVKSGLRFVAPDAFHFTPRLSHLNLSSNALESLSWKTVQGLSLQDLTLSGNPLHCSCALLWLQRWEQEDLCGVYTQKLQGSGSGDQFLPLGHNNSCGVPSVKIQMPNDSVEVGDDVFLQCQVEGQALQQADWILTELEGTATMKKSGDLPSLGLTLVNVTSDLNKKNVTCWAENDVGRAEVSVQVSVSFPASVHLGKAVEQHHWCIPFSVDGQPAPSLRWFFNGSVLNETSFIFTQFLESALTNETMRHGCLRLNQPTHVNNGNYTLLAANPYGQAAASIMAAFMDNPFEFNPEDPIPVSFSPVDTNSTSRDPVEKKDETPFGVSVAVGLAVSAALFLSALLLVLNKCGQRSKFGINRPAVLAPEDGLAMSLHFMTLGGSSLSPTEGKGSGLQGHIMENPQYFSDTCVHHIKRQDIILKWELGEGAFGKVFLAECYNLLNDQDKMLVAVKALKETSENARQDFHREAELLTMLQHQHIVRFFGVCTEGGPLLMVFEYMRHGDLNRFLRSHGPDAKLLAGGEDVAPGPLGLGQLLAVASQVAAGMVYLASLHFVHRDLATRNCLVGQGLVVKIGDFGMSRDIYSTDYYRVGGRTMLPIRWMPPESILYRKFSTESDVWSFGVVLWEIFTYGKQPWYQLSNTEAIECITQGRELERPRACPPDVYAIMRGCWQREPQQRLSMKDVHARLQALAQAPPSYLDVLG
Sequence (P07174 30-425, chain 2 of 2, further chain): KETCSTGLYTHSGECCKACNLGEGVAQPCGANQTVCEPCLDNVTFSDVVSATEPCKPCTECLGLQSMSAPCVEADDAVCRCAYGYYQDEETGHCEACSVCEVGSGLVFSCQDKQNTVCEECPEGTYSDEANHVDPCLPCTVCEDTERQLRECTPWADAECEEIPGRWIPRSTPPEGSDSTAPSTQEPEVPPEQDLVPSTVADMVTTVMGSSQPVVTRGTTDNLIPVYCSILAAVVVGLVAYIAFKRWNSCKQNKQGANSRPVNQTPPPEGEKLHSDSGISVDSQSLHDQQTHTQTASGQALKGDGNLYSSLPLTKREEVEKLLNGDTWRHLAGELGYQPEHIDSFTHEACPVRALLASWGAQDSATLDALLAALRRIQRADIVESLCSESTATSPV

Substance | IC50
hNGF Mut 1 (H4A) (from UniProt P01138 122-241) (ligand) | 0.18 nM
hNGF Mut 2 (H4D) (from UniProt P01138 122-241) (ligand) | 0.43 nM
hNGF Mut 4 (H4A, H8A, R9A) (from UniProt P01138 122-241) (ligand) | 0.39 nM
mNGF (1-118) (from UniProt P01139 122-239) (ligand) | 0.06 nM

Continued by falling IC50, values first:

IC50 | Substance
4.1 nM | hNGF (10-118) (from UniProt P01138 131-239) (ligand)
0.18 nM | hNGF Mut 3 (R9A) (from UniProt P01138 122-241) (ligand)
0.13 nM | hNGF (6-118) (from UniProt P01138 127-239) (ligand)
0.05 nM | hNGF (1-118) (from UniProt P01138 122-239) (ligand)
